For test [1], the target named is trimeric cohesin (SMC1, SMC3-FLAG, SCC1(TEV)-Halo-His14) (human) (UniProt Q14683). Kind of test: high-speed atomic force microscopy.
The next test has as its target NIPBL (human) (UniProt Q6KC79). Kind of test: high-speed atomic force microscopy.

Usually stoichiometry N stands for the number of molecules, sites or subunits per partner or assembly. In test [1], “NIPBL (from UniProt Q6KC79 1-2804) (natural protein)” showed a stoichiometry N of 1. With NIPBL, Q6KC79 1-2804, in the test with NIPBL (human), the stoichiometry N worked out at 2.
